Test results published in IntAct's records for PubMed 35512704.

B1: Speckle-type POZ protein (Homo sapiens), O43791 (parent)
chain: MSRVPSPPPPAEMSSGPVAESWCYTQIKVVKFSYMWTINNFSFCREEMGEVIKSSTFSSGANDKLKWCLRVNPKGLDEESKDYLSLYLLLVSCPKSEVRAKFKFSILNAKGEETKAMESQRAYRFVQGKDWGFKKFIRRDFLLDEANGLLPDDKLTLFCEVSVVQDSVNISGQNTMNMVKVPECRLADELGGLWENSRFTDCCLCVAGQEFQAHKAILAARSPVFSAMFEHEMEESKKNRVEINDVEPEVFKEMMCFIYTGKAPNLDKMADDLLAAADKYALERLKVMCEDALCSNLSVENAAEILILADLHSADQLKTQAVDFINYHASDVLETSGWKSMVVSHPHLVAEAYRSLASAQCPFLGPPRKRLKQS
partner: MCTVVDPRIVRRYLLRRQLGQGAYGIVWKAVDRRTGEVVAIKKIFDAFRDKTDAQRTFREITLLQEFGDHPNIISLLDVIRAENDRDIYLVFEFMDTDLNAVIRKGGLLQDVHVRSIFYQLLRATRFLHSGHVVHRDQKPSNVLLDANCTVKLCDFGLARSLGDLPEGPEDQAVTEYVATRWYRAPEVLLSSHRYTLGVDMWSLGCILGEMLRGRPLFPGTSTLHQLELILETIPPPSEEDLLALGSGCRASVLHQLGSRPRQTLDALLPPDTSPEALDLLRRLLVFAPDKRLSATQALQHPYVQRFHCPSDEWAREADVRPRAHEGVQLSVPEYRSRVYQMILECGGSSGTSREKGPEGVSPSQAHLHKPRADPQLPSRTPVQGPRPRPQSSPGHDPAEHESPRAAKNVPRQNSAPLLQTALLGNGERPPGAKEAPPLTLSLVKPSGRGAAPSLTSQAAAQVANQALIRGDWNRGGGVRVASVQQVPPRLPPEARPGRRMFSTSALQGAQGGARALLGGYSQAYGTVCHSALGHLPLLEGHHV
B2: Speckle-type POZ protein (Homo sapiens), O43791 (parent)
chain: B1 chain
partner: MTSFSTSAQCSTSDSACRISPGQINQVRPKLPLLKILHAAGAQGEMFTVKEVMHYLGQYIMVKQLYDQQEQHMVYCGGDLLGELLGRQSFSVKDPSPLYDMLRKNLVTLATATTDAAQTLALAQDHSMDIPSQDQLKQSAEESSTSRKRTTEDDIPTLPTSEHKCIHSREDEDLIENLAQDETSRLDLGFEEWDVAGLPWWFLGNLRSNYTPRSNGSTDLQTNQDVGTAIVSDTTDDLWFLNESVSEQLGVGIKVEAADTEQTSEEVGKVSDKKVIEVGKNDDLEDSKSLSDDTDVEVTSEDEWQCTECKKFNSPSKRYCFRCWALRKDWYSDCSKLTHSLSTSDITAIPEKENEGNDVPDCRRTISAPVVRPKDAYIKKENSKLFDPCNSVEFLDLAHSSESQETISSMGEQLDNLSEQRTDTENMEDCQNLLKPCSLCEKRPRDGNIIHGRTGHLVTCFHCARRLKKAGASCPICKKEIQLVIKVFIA
B3: Speckle-type POZ protein (Homo sapiens), O43791 (parent)
chain: B1 chain
partner: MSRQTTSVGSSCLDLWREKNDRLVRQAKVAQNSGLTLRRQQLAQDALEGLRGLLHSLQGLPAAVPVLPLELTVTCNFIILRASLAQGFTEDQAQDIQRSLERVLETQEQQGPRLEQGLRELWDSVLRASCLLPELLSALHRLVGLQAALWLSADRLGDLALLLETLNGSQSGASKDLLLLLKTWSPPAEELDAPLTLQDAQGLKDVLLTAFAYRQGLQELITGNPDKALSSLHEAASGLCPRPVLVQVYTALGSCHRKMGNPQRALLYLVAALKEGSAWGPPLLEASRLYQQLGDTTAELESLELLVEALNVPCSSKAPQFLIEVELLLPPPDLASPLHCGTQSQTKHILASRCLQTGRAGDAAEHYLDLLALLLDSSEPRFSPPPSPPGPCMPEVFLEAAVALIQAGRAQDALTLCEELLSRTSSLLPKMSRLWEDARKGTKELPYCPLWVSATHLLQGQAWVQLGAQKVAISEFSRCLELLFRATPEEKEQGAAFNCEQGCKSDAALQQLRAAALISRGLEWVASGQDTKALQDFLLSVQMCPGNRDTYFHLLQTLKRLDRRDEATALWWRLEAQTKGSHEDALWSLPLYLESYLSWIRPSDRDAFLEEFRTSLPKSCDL
B4: Speckle-type POZ protein (Homo sapiens), O43791 (parent)
chain: B1 chain
partner: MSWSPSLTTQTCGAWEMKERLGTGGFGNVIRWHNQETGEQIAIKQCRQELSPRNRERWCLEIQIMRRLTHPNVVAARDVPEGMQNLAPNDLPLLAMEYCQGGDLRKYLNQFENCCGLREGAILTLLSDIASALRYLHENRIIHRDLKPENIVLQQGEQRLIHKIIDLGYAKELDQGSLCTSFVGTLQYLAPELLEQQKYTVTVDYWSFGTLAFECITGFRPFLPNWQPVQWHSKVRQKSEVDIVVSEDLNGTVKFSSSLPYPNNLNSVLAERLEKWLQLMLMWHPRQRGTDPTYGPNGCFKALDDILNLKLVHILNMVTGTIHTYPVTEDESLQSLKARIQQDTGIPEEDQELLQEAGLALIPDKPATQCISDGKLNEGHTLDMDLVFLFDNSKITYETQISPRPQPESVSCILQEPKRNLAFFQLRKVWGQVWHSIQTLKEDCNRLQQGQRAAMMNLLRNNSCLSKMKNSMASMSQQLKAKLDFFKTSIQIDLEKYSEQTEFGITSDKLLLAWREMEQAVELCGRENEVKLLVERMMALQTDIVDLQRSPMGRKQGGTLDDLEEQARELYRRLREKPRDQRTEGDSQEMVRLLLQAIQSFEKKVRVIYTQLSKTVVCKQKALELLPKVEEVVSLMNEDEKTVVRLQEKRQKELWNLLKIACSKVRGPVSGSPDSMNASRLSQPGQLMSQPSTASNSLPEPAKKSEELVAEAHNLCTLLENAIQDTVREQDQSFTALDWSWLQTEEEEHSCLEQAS

Variants of: B1
Settings: with mk15_human MAPK15, Q8TD08
For F133V, the “effect of a mutation on the interaction” value was “with no effect”.

Variants of: B1
Settings: with mk15_human MAPK15, Q8TD08
Remark: another data set of the same source
For F102C, the “effect of a mutation on the interaction” value was “with no effect”.

Variants of: B1
Settings: with mk15_human MAPK15, Q8TD08
Remark: another data set of the same source
For Y87C, the “effect of a mutation on the interaction” value was “with no effect”.

Variants of: B2
Settings: with mdm4_human MDM4, O15151
With F102C the “effect of a mutation on the interaction” value was “with no effect”.

Variants of: B2
Settings: with mdm4_human MDM4, O15151
Remark: another data set of the same source
In the case of F133V, the “effect of a mutation on the interaction” value is reported as “with no effect”.

Variants of: B2
Settings: with mdm4_human MDM4, O15151
Remark: another data set of the same source
F133L was tested, and the “effect of a mutation on the interaction” value was “with no effect”.

Variants of: B2
Settings: with mdm4_human MDM4, O15151
Remark: another data set of the same source
With Y87C the “effect of a mutation on the interaction” value was “with no effect”.

Variants of: B3
Settings: with fancg_human FANCG
For F133L, the “effect of a mutation on the interaction” value was “with no effect”.

Variants of: B3
Settings: with fancg_human FANCG
Remark: another data set of the same source
For F133V, the “effect of a mutation on the interaction” value was “with no effect”.

Variants of: B3
Settings: with fancg_human FANCG
Remark: another data set of the same source
F102C was tested, and the “effect of a mutation on the interaction” value was “with no effect”.

Variants of: B3
Settings: with fancg_human FANCG
Remark: another data set of the same source
With Y87C the “effect of a mutation on the interaction” value was “with no effect”.

Variants of: B4
Settings: with ikkb_human IKBKB
Y87C was tested, and the “effect of a mutation on the interaction” value was “with no effect”.
